assay: yeast display, Sf9 membrane polyspecificity reagent, FACS + sequencing; frameworks hold sequencing errors
Procedure, shortened: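 Genes from sorted yeast were amplified by colony PCR, read by MiSeq 2 × 250 sequencing and filtered on CDR length. These cells carried a synthetic nanobody library in Saccharomyces cerevisiae BJ5465 and were sorted by FACS into low and high (top ~1%) gates on anti-HA and streptavidin fluorescence. Polyreactivity is labelled according to the gate of origin.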

Sequence	polyreactivity (PSR sort gate)
QVQIVESGRGLVQAGGSLRLSCAPSGFNIPTNGMGWYRQATGKEREFVASITWRGGGTYYAESVKGRFTISRDNAKNTVFLQMNSLKPEDTAVYYCAAGRSWSSYWKYDYWGLGTQVTVSS	low polyreactivity
QVQLVESGGGLVQAGGSLRLSCASSGITFGRNTMGWYRQAPGKERELVAAIDSGGNTYADSVKGRFTISRDNAKNTVYLQMNSLKPEDTAVYYCDVDGGEFSSYGYWGQGTQVTVSS	low polyreactivity
QVQLVESGVGLVQAGGSLRLSCAPSGSTLGYYVMGWYRQAPGKERELVAAITGGGSTDYADSVNGRFTISRDNAKNTVYLQMNSLKPEDTAVYYCAAERTRTGQLFWWGPIYDYWGLGTQVTVSS	low polyreactivity
QVQLVESGGGLVQAGGSLRLSCAASGITFISYAMGWYRQAPGKERELVAVISKSGGRTYYADSVKGRFTISRDNAKNTVYLQMNSLKPEDTAVYYCAATKRYASGMYYWGQGTQVTVSS	high polyreactivity
QVQLVESGGGLVQAGGSLRLSCAASGTTFAYYAMGWYRQAPGKERELVAVISVRGGSTYYADSVKGRFTISRDNAKNTVYLQMNSLKPEDTAVYYCAADTFAGYYYWGQGTQVTVSS	high polyreactivity
QVQLVESGGGLVQAGGSLRLSCAASGNIFWSNAMGWYRQAPGKERELVAGITSSTGSTYYADSVKGRFTISRDNAKNTVYLQMNSLKPEDTAVYSCAARYRYYPVTTRGYYWGQGTQVTVSS	high polyreactivity
QVQLVESGGGLDQAGGSLRLSCAASGITFGRNTMGWYRQAPGQERELVAAIDSGGNTYADSVKGRFTISRDNAKNTVYLQMNCLKPEDTAVYYCAVDGGEFSSYGYWGQGTQVTVSS	low polyreactivity
QVQLVESGGGLVQAGGSLRLSCAASGSTSGRNVMGWYIQAPGKERELVAAISSRGGSTYYADSVKGRFTISRDNAKNTVYLQMNSLKPEDTAVYYCAARYGAYSGYDYWGQGTQVTVSS	high polyreactivity
QVQLVESGGGLVQAGGSLRLSCAASGSTFFRYAMGWYRQAPGKEREFVAAITSSGGNTYYADSVKGRFTISRDNAKNTVYFQMNSLKPEDTAVYYCAAVWYSPYVKYNYWGQGTQVTVSS	low polyreactivity
QVQLVESGGGLVQAGGSLRLSCAASGRIFFYYAMGWYRQAPGKERELVAAIRSGGSTNYADSVKGRFTISRDNAKNTVYLQMNSLKPEDTAVYYCAADPSRYYTRRYYYWGQGTQVTVSS	high polyreactivity
QVQLVESGGGLVQAGGSLRLSCAASGGIFTPYAMGWYRQAPGKERELVAAISRSGGSTYYADSVKGRFTISRDNAKNTVYLQMNSLKPEDTAVYYCNALFRALKAFSQYNYWGQGTQVTVSS	high polyreactivity
QVQLVESGGGLVQAGGSLRLSCAASGSIFHGNAMGWNRQAPGKERELVATISSGGSTYYADSVKGRFTISRDNAKNTVYLQMNSLKPEDTAVYYCAAEYWNGPYYGDPFEYDYWGQGTQVTVSS	low polyreactivity
QVQLVESGGGLVQAGGSLRLSCAASGTIFYDNAMGWYRQAPAKERELVASIRWSGDSTYYADSVKGRFTISRDNAKNTVYLQMISLKPEDTAVYYCAADPVEPYFTAIAYDYWGQGTQVTVSS	low polyreactivity
QVQLVESGGGLVQAGGSLRLSCASSGSTFISYAMGWYRPAPGKERELVAAISRRGDSTYYADSVKGRFTISRDNAKNTVYLQMNSLKPEDSAVYYCNAVEWDDYYYSYADYGYSYDYWGQGTQVTVSS	low polyreactivity
QVQLVESGGGLVQAGGSLRLSCAASGITFYGYTMGWYRQAPGKERELVAAITSGGITYYADSVKGRFTISRDNAKNTVYLQMNSLKPEDTAVYYCNADDVWYEYDYWGEGTQVTVSS	high polyreactivity
QVQLVESGGGLVQAGGSLRLSCAASGFTFKCYTMGWYRQAPGKERELVAGISRRGGSTYYADSVKGRFTISRDNAKNTVYLQMNSLKPEDTAVYDCAADSQLTKFYYWGQGSQVTVSS	high polyreactivity
QVQLVESGGGLVQAGGSLRLSCAASGGTFSKYAMGWYRQAPGKEREFVAAITVSGGGTYYADSVKGRFTISRDNAKNTVYLQMNSLKPEDTAVYYCAADLAWTASDYWGQGTQVTVSS	low polyreactivity
